From the RNAGym collection of RNA variant scans (doi:10.7554/elife.90254) come the findings set out here.

B1: OR4K15 (parent)
chain: GUUAACGGUCAUAGGCCAUGGAAACUAGGAGCACCAUUUCGCUGCCAGUGAAGAAAUGAACAAAGAAAAUCUGGGCCAGGCAGGCAUCAAAAGAAAUAGUCUUGCGCUCAACCAGAAAGUCUGUAAUCAUUUUAAGGGUA

The variants in this series derive from B1. In words: self-cleavage, relative activity (ratio to wild type); higher = more cleavage; in vitro, sequencing; the parent is a self-cleaving ribozyme.
Consider A110G A125G, for which the self-cleavage turned out to be 0.07. To A114G U139C belongs 0.32. To U103A A116G belongs 0.14; to G104A U122C, 0.02. The value for A111G A125G was 0.01; that for C101U U131C was 0.27; that for C107A A114U was 0.

Turning to U103A G137A, the self-cleavage came to 0.85. To C105A U122A belongs 0; to U103C U132C, 0.85; to A111U A118G, 0.05. Regarding A110G U130C, the self-cleavage was 0.09. With A110G U122C, the self-cleavage is 0.09. The value for A110G U122G was 0.26. A110G U122A: the self-cleavage came to 0.11. The value for C113U A117G was 0.08; that for C101U U127A was 0.45. The value for U108C A126G was 0; that for U108C A126U was 0.01; that for A111G C128A was 0.01. To U108A A117G belongs 0.02; to A114G A118G, 0.36. For the variant A110G G123A, the self-cleavage came out at 0.29.

On to U102C U103A, for which the self-cleavage stood at 0.2. To C105U A118G belongs 0.04; to U108C A117C, 0.06.

Take U108C A117G: the self-cleavage turned out to be 0.01. To G115U U131C belongs 0.06; to C101U G106A, 0. A110G A111U: the self-cleavage was 0.04. To A114U A118G belongs 0.05; to U108C A140G, 0.01; to U103A U122C, 0.35. As for A114U A140G, the self-cleavage was determined as 0.08.

With U108C A110U, the self-cleavage was 0.01. The value for U103G U127C was 0; that for A114G A116G was 0.1. The value for A114G U120C was 0.18; that for C105G was 0.02. To C105A belongs 0.03; to C105U, 0.16; to U102C A114G, 0.68. With U102C A114U, the self-cleavage turned out to be 0.11. For A110U A126G, the self-cleavage came to 1.05. To U103C U108A belongs 0.02; to C101U U120A, 0.4. The value for A110U A111G was 0.01. To C105U A114G belongs 0.07; to U102A U108A, 0.02. Take A114U U133C: the self-cleavage was 0.14. To C113A A116G belongs 0.01.

U108G A135G: the self-cleavage amounted to 0.01. As for G106A U130C, the self-cleavage amounted to 0.01. For the variant U103C U133C, the self-cleavage was determined as 1.32.

In the case of C105G A135G, the self-cleavage is 0.03. The value for C107U A111G was 0.

Regarding A111U, the self-cleavage worked out at 0.08. The value for A111C was 0.01; that for A111G was 0.02. To U102A U131C belongs 0.62; to A114C, 0.04. To A114U belongs 0.06; to A114G, 0.45. Regarding G106U A114G, the self-cleavage turned out to be 0. The value for A114G G115U was 0.02; that for U103C was 0.7; that for U103G was 0.03. Turning to U103A, the self-cleavage was found to be 0.39.

As to U102A A135U, the self-cleavage was found to be 0.49. With G106A A111G, the self-cleavage worked out at 0.01.

As for G106A A111U, the self-cleavage amounted to 0. On to U102A A129U, for which the self-cleavage came to 0.31.

For the variant U103A U133C, the self-cleavage is 0.61.

As for C112G U120A, the self-cleavage was determined as 0.01. To A111G U132C belongs 0.03; to A111G U132A, 0.02; to U108C U130G, 0. For the variant U108C U130C, the self-cleavage is 0.01. On to A114G A117U, for which the self-cleavage came to 0.4.

As to C109U A135G, the self-cleavage worked out at 0.38. To A114U A129G belongs 0.06. The value for C105U A116G was 0.03. As to U102A A111G, the self-cleavage was determined as 0.03. In the case of A114G U127C, the self-cleavage turned out to be 0.11. For U103C U139A, the self-cleavage came out at 1.06. For the variant U103C U139C, the self-cleavage is 1.15. To U102G U130A belongs 0.29; to A110G U120C, 0.06; to A110G A140U, 0.18.

Take U103G U122C: the self-cleavage is 0.01. The value for U103G G104A was 0.59. To C101U belongs 0.41; to C101A, 0.21. To U103A A114G belongs 0.45. As to U100G U108A, the self-cleavage came to 0.02. To U102A A140U belongs 1.14. The value for U102A A140G was 1.02. In the case of G115U U130C, the self-cleavage was 0.07. The value for U102C U120C was 2.34; that for C107A A118U was 0. To A111U A126G belongs 0.06; to U103C A118U, 0.3. To A111G U131C belongs 0.01; to A114U A135G, 0.05. In the case of U108A U131C, the self-cleavage was 0.01. For the variant C113U G136A, the self-cleavage stood at 0.18. To C107U A134G belongs 0.03.

On to U103C A111G, for which the self-cleavage worked out at 0.02.

For G115A A116G, the self-cleavage was determined as 0.23.

Regarding U108C A134G, the self-cleavage is 0.07. The value for C105A A134G was 0.05; that for A111G C121A was 0.03. The value for A111G U124A was 0.02; that for G115U A117G was 0.39; that for C101A U122C was 0.13. Turning to G104A A111G, the self-cleavage came to 0.01.

Regarding A114U G137U, the self-cleavage came out at 0.3.

As for C105U A111G, the self-cleavage was 0.02. To U100G A126G belongs 1.02; to A111G A134U, 0.02; to A111G A134G, 0.01. To U108C A111U belongs 0; to U108C A111G, 0.01. To U108C A111C belongs 0.01; to C109A A118G, 0.32; to C107U A135G, 0.01. Turning to G115U A126U, the self-cleavage stood at 0.25.

As to A110U A117C, the self-cleavage was 0.29.

Regarding A111U A134G, the self-cleavage turned out to be 0.03. On to A110G C121G, for which the self-cleavage was determined as 0.2.

As for A110G U139A, the self-cleavage worked out at 0.05. With U103C A114G, the self-cleavage was determined as 0.51.

As to U102C C107U, the self-cleavage worked out at 0.01. To U102A A116C belongs 0.21; to U103C U120G, 0.4; to U103C U120C, 0.4.

Take U102C G123A: the self-cleavage came out at 2.17.

U102C G123C: the self-cleavage was determined as 1.33. The value for U102C U132C was 2.04; that for A110C A134G was 0.41; that for A110G A117G was 0.16. With G106U U132A, the self-cleavage is 0.03. Turning to G104U A114U, the self-cleavage came out at 0.02. The value for A110G A134G was 0.12. Take G115A U131C: the self-cleavage was 0.04.

Consider U102A G115A, for which the self-cleavage is 0.06. The value for U108A A126G was 0.01. As to U108A A111G, the self-cleavage stood at 0.01. In the case of U108C C113A, the self-cleavage stood at 0.01.

As to G115A, the self-cleavage was 0.12. The value for G115C was 0.14; that for G115U was 0.23. On to U103C A140U, for which the self-cleavage stood at 1.14. The value for U102A U130C was 0.43. The value for U102A U130A was 0.32; that for U108C U120C was 0.01. Regarding U108C U120A, the self-cleavage is 0.01. As for U108C A135U, the self-cleavage turned out to be 0.01. To C113U A140G belongs 0.12. To U102C U131C belongs 2.13.

Regarding C112U A117G, the self-cleavage amounted to 0.01. The value for A114U U122C was 0.04. To A114U U122A belongs 0.04; to C113U U122C, 0.08; to U108C A118C, 0.

As to A114G U122A, the self-cleavage amounted to 0.39. The value for A114G U122C was 0.16.
